According to US20220127304A1:
One block for each binder: values may come before it.

How the values were obtained:
[1] = biological target: human serum-derived IgG polyclonal antibody (WAKO) (human); experiment: affinity column breakthrough, scFv immobilized on HiTrap NHS-activated HP
[2] = biological target: human IgG1 (human); experiment: SPR, Biacore X-100, human IgG1 on the chip, single cycle kinetics
[3] = biological target: human serum-derived IgG polyclonal antibody (WAKO) (human); experiment: affinity column breakthrough, scFv immobilized on HiTrap NHS-activated HP (33.6 mg)
[4] = biological target: human serum-derived IgG polyclonal antibody (WAKO) (human); experiment: affinity column breakthrough, scFv immobilized on HiTrap NHS-activated HP; average of Reference Examples 1-1 and 1-2

B1: R3-26 repCK+K (scFv)
scFv: QEQLVESGGGLVTPGGTLTLTCTVSGIDLSSYAMSWVRQVPGEGLEWIGIIGSGGGTAYANWARGRFTISRTSSTTVDLRMTSLTTEDTATYFCATDYGIYGYAYGHLWGPGTLVTVTSGGGGSGGGGSGGGGSELVMTQTASPVSAAVGGTVTINCQASQSISTALAWYQQRPGQPPRLLIYDASTLASGVSSRFSGSGSGTEFTLTISDLESADAATYYCQTYFGSDTDNAFGEGTEVEITGSAAAGGGGSKIEHHHHHH
- [10% DBC (mg/mL) at flow rate of 1.0 mL/min]/[amount of protein immobilized on column (mg)] [1]: 0.625 (mg/mL)/mg
- Kd [2]: 1.6 nM
- koff [2]: 9.1e-05 s⁻¹
- kon [2]: 56000 M⁻¹ s⁻¹

B3: R3-26 repCK+ori6K (scFv)
scFv: QEQLVESGGGLVKPGGTLTLTCTVSGIDLSSYAMSWVRQVPGKGLEWIGIIGSGGGTAYANWARGRFTISRTSSTTVDLRMTSLTTEDTATYFCATDYGIYGYAYGHLWGPGTLVTVTKGGGGSGGGGSGGGGSELVMTQTASPVSAKVGGTVTINCQASQSISTALAWYQQKPGQPPRLLIYDASTLASGVSSRFSGSGSGTEFTLTISDLESADAATYYCQTYFGSDTDNAFGEGTEVEIKGSAAALEHHHHHH
- [10% DBC (mg/mL) at flow rate of 1.0 mL/min]/[amount of protein immobilized on column (mg)] [3]: 0.777 (mg/mL)/mg
- Kd [2]: 0.79 nM
- koff [2]: 6.2e-05 s⁻¹
- kon [2]: 79000 M⁻¹ s⁻¹

Results, then the binder that gave them:

- Kd [2]: 0.053 nM
- koff [2]: 1.6e-05 s⁻¹
- kon [2]: 300000 M⁻¹ s⁻¹
B2: R3-26 repCK+ori6K+VH4KVL4K (scFv)
scFv: QEQLVESGGGLVKPGGTLTLTCTVSGIDLSSYAMSWVRQVPGKGLEWIGIIGSGGGTAYANWARGRFTISRTSSTTVDLRMTSLTTEDTATYFCATDYGIYGYAYGHLWGPGTLVTVTKKKKKGGGGSGGGGSGGGGSELVMTQTASPVSAKVGGTVTINCQASQSISTALAWYQQKPGQPPRLLIYDASTLASGVSSRFSGSGSGTEFTLTISDLESADAATYYCQTYFGSDTDNAFGEGTEVEIKKKKKGSAAALEHHHHHH

- [10% DBC (mg/mL) at flow rate of 1.0 mL/min]/[amount of protein immobilized on column (mg)] [4]: 0.736 (mg/mL)/mg
- Kd [2]: 2.1 nM
- koff [2]: 4.3e-05 s⁻¹
- kon [2]: 21000 M⁻¹ s⁻¹
B4: single-chain antibody R3-26 (scFv)
scFv: QEQLVESGGGLVKPGGTLTLTCTVSGIDLSSYAMSWVRQVPGKGLEWIGIIGSGGGTAYANWAKGRFTISKTSSTTVDLKMTSLTTEDTATYFCATDYGIYGYAYGHLWGPGTLVTVTSGGGGSGGGGSGGGGSELVMTQTASPVSAAVGGTVTIKCQASQSISTALAWYQQRPGQPPKLLIYDASTLASGVSSRFKGSGSGTEFTLTISDLECADAATYYCQTYFGSDTDNAFGEGTEVEITGSAAALEHHHHHH
